# Data from patent US20240093159A1 (UNIVERSITY OF DUNDEE, published 2024).
# T1: Human IL17RA protein (SinoBiological) (human, UniProt Q96F46 33-320)
# T1 construct: Coated on ELISA plates at 0.25 ug/well; also called IL17RA receptor
# T1 sequence (looked up): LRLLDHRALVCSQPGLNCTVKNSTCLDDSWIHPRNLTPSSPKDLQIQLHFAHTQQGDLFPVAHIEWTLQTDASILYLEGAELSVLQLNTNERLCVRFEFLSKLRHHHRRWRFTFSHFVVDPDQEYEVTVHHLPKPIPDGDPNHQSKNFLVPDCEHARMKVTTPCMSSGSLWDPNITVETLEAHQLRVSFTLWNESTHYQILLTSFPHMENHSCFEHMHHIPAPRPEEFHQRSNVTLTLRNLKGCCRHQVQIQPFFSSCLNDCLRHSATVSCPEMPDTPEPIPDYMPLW
# T2: commercially sourced Im7 linked to Sepharose (UniProt Q03708 1-87, linked to Sepharose resin)
# T2 construct: also called Im7-Sepharose; Im7-agarose
# T2 sequence: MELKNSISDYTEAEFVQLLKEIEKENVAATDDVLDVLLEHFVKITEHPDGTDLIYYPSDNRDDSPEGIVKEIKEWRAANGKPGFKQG
# B1: IL33 purified on Im7-Sepharose and released from ColE7 by TEV protease (ligand)
# chain: GSSIQGTSLLTQSPASLSTYNDQSVSFVLENGCYVINVDKSGKDQEQDQVLLRYYKSPCPASQSGDGVDGKKLMVNMSPIKDTDIWLHANDKDYSVELQRGDVSPPEQAFFVLHKKSSDFVSFECKNLPGTYIGVKDNQLALVEEKDESCNNIMFKLSKI
# B2: ColE7-IL33 fusion (Colicin E7 catalytic domain, linker, TEV site, murine IL-33 C-terminal fragment) (other)
# chain: ESKRNKPGKATGKGKPVNNKWLNNAGKDLGSPVPDRIANKLRDKEFKSFDDFRKKFWEEVSKDPELSKQFSRNNNDRMKVGKAPKTRTQDVSGKATSFALHHEKPISQNGGVYDMDNISVVTPKRAIDIHRGKSGGGSSGSGENLYFQGSSIQGTSLLTQSPASLSTYNDQSVSFVLENGCYVINVDKSGKDQEQDQVLLRYYKSPCPASQSGDGVDGKKLMVNMSPIKDTDIWLHANDKDYSVELQRGDVSPPEQAFFVLHKKSSDFVSFECKNLPGTYIGVKDNQLALVEEKDESCNNIMFKLSKI
# notes: also called ColE7-1L33; ColicinE7-IL33
# Columns and labels:
# [1] = biological target: T1, Human IL17RA protein (SinoBiological); test: receptor binding ELISA, IL17RA coated at 0.25 ug/well
# [2] = biological target: T2, commercially sourced Im7 linked to …; test: E. coli cytosol incubated with Im7-Sepharose, extensive washing, TEV release, SDS-PAGE
Binder,binding result [1],binding result [2]
B1,no binding,–
B2,–,binds
